Source: PMC6389498, “Control of Bacterial Virulence through the Peptide Signature of the Habitat” (Cell Reports, 2019)

Key:
[1] = target: PrfA (recombinant PrfA^WT from E. coli BL21(pET28aprfA^WT), used in the biophysical assays) (Listeria monocytogenes) (UniProt P22262); experiment: ITC; GE MicroCal iTC200; 100 uM PrfA in the cell, 2 uL of 250 uM peptide injected every 60 s; 50 mM Tris pH 7.5, 500 mM NaCl; one-site model
[2] = target: PrfA (recombinant PrfA^WT from E. coli BL21(pET28aprfA^WT), used in the biophysical assays) (Listeria monocytogenes) (UniProt P22262)
[3] = target: PrfA (full-length PrfA^WT with two non-native N-terminal residues GA after TEV cleavage, used for crystallization) (Listeria monocytogenes) (UniProt P22262); experiment: crystal structure

PrfA (recombinant PrfA^WT from E. coli BL21(pET28aprfA^WT), used in the biophysical assays) (Listeria monocytogenes), sequence (P22262 whole entry): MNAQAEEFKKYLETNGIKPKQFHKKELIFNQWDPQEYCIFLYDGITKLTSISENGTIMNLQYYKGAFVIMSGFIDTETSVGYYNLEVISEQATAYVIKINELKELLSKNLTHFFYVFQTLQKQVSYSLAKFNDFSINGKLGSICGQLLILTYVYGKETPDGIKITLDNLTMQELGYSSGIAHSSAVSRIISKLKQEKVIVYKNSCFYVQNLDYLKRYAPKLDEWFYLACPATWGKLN
PrfA (full-length PrfA^WT with two non-native N-terminal residues GA after TEV cleavage, used for crystallization), sequence (P22262 1-237, tags left off): as the sequence (P22262 whole entry) above

Substance	Kd [1] [µM]	other [2] [%]	stoichiometry N [3]
LLL peptide (Leu tripeptide)	25	87	
PrfA (full-length PrfA^WT with two non-native N-terminal residues GA after TEV cleavage, used for crystallization) (from UniProt P22262 1-237) (natural protein)			2
LL peptide (Leu dipeptide, L-leucylleucine)	25	93	
